A word on the stoichiometry N: it is a count of units in the complex or per binding partner. Broadly, the Kd is the concentration at which binding is half-saturated. A high value points to a looser complex.

Ends that are not written are not given here. dimethyl = dimethyl-lysine

This note sets out measurements from paper PMC6043480, “Molecular basis for the inhibition of the methyl-lysine binding function of 53BP1 by TIRR” (Nature Communications, 2018).

To fix the notation:
B2: 53BP1 tandem Tudor domain (residues 1459-1634) (domain or fragment, human, UniProt Q12888 1459-1634, looked up)
chain: RSDSPEIPFQAAAGPSDGLDASSPGNSFVGLRVVAKWSSNGYFYSGKITRDVGAGKYKLLFDDGYECDVLGKDILLCDPIPLDTEVTALSEDEYFSAGVVKGHRKESGELYYSIEKEGQRKWYKRMAVILSLEQGNRLREQYGLGPYEAVTPLTKAADISLDNLVEGKRKRRSNVS
notes: also called 53BP1 TTD; TTD; source: E. coli BL21 (DE3), purified (Ni-chelating Sepharose, 3C protease, Source 15Q, Superdex 200 Increase); not shown: His6, N-terminal, cleaved
B3: Tudor interacting repair regulator (TIRR), residues 6-211 (domain or fragment, human, UniProt Q9BRJ7 6-211, looked up)
chain: VPELKQISRVEAMRLGPGWSHSCHAMLYAANPGQLFGRIPMRFSVLMQMRFDGLLGFPGGFVDRRFWSLEDGLNRVLGLGLGCLRLTEADYLSSHLTEGPHRVVAHLYARQLTLEQLHAVEISAVHSRDHGLEVLGLVRVPLYTQKDRVGGFPNFLSNAFVSTAKCQLLFALKVLNMMPEEKLVEALAAATEKQKKALEKLLPASS
notes: two TIRR molecules in the crystal; also called NUDT16L1; wild-type TIRR; source: E. coli BL21 (DE3), purified (Ni-chelating Sepharose, 3C protease, Superdex 200 Increase); not shown: His6, N-terminal, cleaved

Data set [1] deals with B2. In words: ITC; 25 °C, PBS pH 7.0 with 140 mM NaCl; 150 μM 53BP1 TTD injected into 15 μM TIRR or its mutants; 80-100 μM TTD mutant into 8-10 μM TIRR; 750 μM H4K20me2 peptide into 37.5 μM TTD. The note with it: both partners purified. For orientation: Isothermal titration calorimetry measures the heat released or taken up as one component is titrated into another.
In data set [2] the target is B3. The data set can be described thus: AUC; sedimentation velocity, 60,000 rpm, 20 °C, 10 mM Tris-HCl pH 8.0, 200 mM NaCl, 3 mM DTT; TIRR 53 μM, TTD 35 μM, mixture 20 μM TIRR with 20 μM TTD. The note with it: both partners purified.
In data set [3] the target is B3. The data set can be described thus: ITC; 25 °C, PBS pH 7.0 with 140 mM NaCl; 150 μM 53BP1 TTD injected into 15 μM TIRR or its mutants; 80-100 μM TTD mutant into 8-10 μM TIRR; 750 μM H4K20me2 peptide into 37.5 μM TTD. The settings on record: both partners purified.
Data set [4] concerns the molecule itself. In words: AUC; sedimentation velocity, 60,000 rpm, 20 °C, 10 mM Tris-HCl pH 8.0, 200 mM NaCl, 3 mM DTT; TIRR 53 μM, TTD 35 μM, mixture 20 μM TIRR with 20 μM TTD.

B1: H4K20me2 peptide (residues 12-25) (peptide, UniProt P62805 13-26, looked up)
peptide: KGGAKRHRK(dimethyl)VLRDN
notes: histone H4, residues 12-25, dimethylated on lysine 20; Peptide used in ITC
Consider B1, for which, in data set [1], the binding result is on record as “binds”.
In the case of B2, the “stoichiometry N” value in data set [2] was found to be 1. Also, the Kd in data set [3] was approximately 780 nM.
On to B3, for which the “stoichiometry N” value in data set [4] stood at 2.
